Reference: patent US20230233707A1 (University of Washington, published 2023)

B1: i52.3 (designed binder)
chain: MSDEEERNELIKRIREAAQRAREAAERTGDPRVRELARELARLAQRAFYLVLHDPSSSDVNEALKLIVEAIEAAVRALEAAERAGDPELREDAREAVRLAVEAAEEVQRNPSSSTANLLLKAIVALAEALAAAANGDKEKFKKAAESALEIAKRVVEVASKEGDPEAVLEAAKVALRVAELAAKNGDKEVFKKAAESALEVAKRLVEVASKEGDPELVLEAAKVALRVAELAAKNGDKEVFQKAAASAVEVALRLTEVASKEGDSELETEAAKVITRVRELASKQGDAAVAILAETAEVKLEIEESKKRPQSESAKNLILIMQLLINQIRLLVLQIRMLDEQRQEGSLEHHHHHH
notes: Homopentamer for I52 icosahedral cages; C-terminal GS linker and 6xHis tag; also called i52.3 AbC-forming design
B2: d2.7 (designed binder)
chain: MSDEEERNELIKRIREAAQRAREAAERTGDPRVRELARELAKLAQIAFYLVLHDPSAKEVNLALELIVKAIELAVRALEEAEKTGDPHARELAREIVRLAVELARAVAEAAEEAKKQGNSELAEQVARAAQVALEVIKAAITAAKQGDRKAFRAALELVLEVIKAIEEAVKQGNPKKVAEVALKAELIRIVVQNAANKGDDADEAVEAARAAFEIVLAAAQLAGIDSEEVLELAARLIKEVVENAQREGYDIAVAAIAAAVAFAVVAVAAAAADITSSEVLELAIRLIKEVVENAVREGYVILLAALAAAAAFVVVAAAAKRAGITSSETLKRAIEEIRKRVEEAQREGNDISEAARQAAEEFRKKAEELKGSLEHHHHHH
notes: Homodimer for D2 dihedral cages; C-terminal GS linker and 6xHis tag; also called d2.7 AbC-forming design
B3: i52.6 (designed binder)
chain: MSDEEERNELIKRIREAAQRAREAAERTGDPRVRELARELARLAQRAFYLVLHDPSSSDVNEALKLIVEAIEAAVRALEAAERTGDPKVREEARELVRRAVEAAEEVQRNPSSSEVNEKLKAIVVEIEVKVASLEAKEVTDPDKALKIAKKVIELALEAVKENPSTEALRAVLEAVRLASEVAKRVTDPDKALKIAKLVIELALEAVKEDPSTDALRAVLEAVRLASEVAKRVTDPDKALKIAKLVLELAAEAVKEDPSTDALRAAKEAERLATEVAKRVTDPKKAREIEMLVLKLQMEAILAETEEVKKEIEESKKRPQSESAKNLILIMQLLINQIRLLALQIRMLALQLQEGSLEHHHHHH
notes: Homopentamer for I52 icosahedral cages; C-terminal GS linker and 6xHis tag; also called i52.6 AbC-forming design
B4: d2.4 (designed binder)
chain: MSDEEERNELIKRIREAAQRAREAAERTGDPRVRELARELARIAQIAFYLVLHDPSSSEVNEALKAVVKAIELAVRALEAAEKTGDPRVRELAREVVKAAVDVAEAAQAGLNDKLREVAEKALRLAKEALKEGDSTAAELAAEIARLAAKLAGDEDVLKKVKLVLEAIKLVKIVVENAKRKGDDSKEAAEAAVAAFLIVLAAAKLAGIASEEVLELAARLIKEVVENAQREGYDIAVAAIAAAVAFAVVAVAAAAADITSSEVLELAIRLIKEVVENAQREGYVILLAALAAAAAFVVVAAAAKRAGITSSETLKRAIEEIRKRVEEAQREGNDISEAARQAAEEFRKKAEELKGSLEHHHHHH
notes: Homodimer for D2 dihedral cages; C-terminal GS linker and 6xHis tag; also called d2.4 AbC-forming design
B5: d2.3 (designed binder)
chain: MSDEEERNELIKRIREAAQRAREAAERTGDPRVRELARELARIAQIAFYLVLHDPSSSEVNEALKAVVKAIELAVRALEEAEKTGDPEVRELAREVVRLAVEVATATAAGENDTLRKVAERALRLAKEAAKRGDAKAAKQAAKIAKLAAANAGDEDVLKKVELVRLAIELVEIVVENAKRKGDDDKEAAEAALAAFRIVLAAAQLAGIASLEVLELALRLIKEVVENAQREGYDIAVAAIAAAVAFAVVAVAAAAADITSSEVLELAIRLIKEVVENAQREGYVILLAALAAAAAFVVVAAAAKRAGITSSETLKRAIEEIRKRVEEAQREGNDISEAARQAAEEFRKKAEELKGSLEHHHHHH
notes: also called d2.3 AbC-forming design

The binders below were run against T1, Fc from human IgG1 (human, UniProt P01857-1 104-330 = IgG part) (assay: SEC, design mixed with human IgG1 Fc, overlaid on the single components [panel B]).
T1 construct: domain: Fc; also called human IgG1 Fc; IgG1 Fc protein
Description: Synthetic genes encoding designed protein sequences appended with a C-terminal 6× histidine tag were expressed in E. coli. Designs were purified from clarified lysates using immobilized metal affinity chromatography (IMAC), and size exclusion chromatography (SEC) was used as a final purification step. […] Designs were then combined with human IgG1 Fc, and the assemblies were re-purified via SEC. Eight of these AbC-forming designs assembled with Fc into a species that eluted as a monodisperse peak at a volume consistent with the target nanoparticle molecular weight (FIG. 2a-b; 3 D2 dihedral, 2 T32 tetrahedral, 1 O42 octahedral, and 2 I52 icosahedral AbCs). For the i52.6 design, adding 100 mM L-arginine to the assembly buffer prevented aggregation after combining with Fc; all other designs readily self-assembled in Tris-buffered saline.
Designs that produced monodisperse SEC peaks around their expected retention volume were combined with Fc from human IgG1. Fc was produced recombinantly either using standard methods for expression in HEK293T cells or in E. coli (43). Cage components were incubated at 4° C. for at minimum 30 minutes. […] Fc-binding and cage formation were confirmed via SEC; earlier shifts in retention time (compared to either component run alone) show the formation of a larger structure. NS-EM was used as previously described to confirm the structures of designs that passed these steps.
B1: binds. B2: binds. B3: binds. B4: binds. B5: binds.
